Reference: patent US9389219B2, “Methods for screening inhibitors of tumor associated protein aggregation” (Vrije Universiteit Brussel, priority 2011, dated 2016)

What was measured:
WT p53 in U2OS cells [1] = test: Native page analysis of p53 in treated U2OS cells; assay type: cell-based, human
WT p53 in U2OS cells [2] = test: Western blot of p53 in U2OS cells treated with chemotherapeutic agents; assay type: cell-based, human
[3] = system: mutant p53 inclusions in SaOS-2 cells; test: Nocodazole treatment of transfected SaOS-2 cells, immunofluorescence of aggresomal inclusions; assay type: cell-based, human
Method: To further investigate the aggresomal nature of the observed inclusions, several strategies were adopted. (i) Since the formation of cytoplasmic inclusions in aggresomes is an active process that depends on cytoskeletal integrity,^15 transfected cells were treated with nocodazole, a small chemical that disrupts microtubule assembly. […] (ii) The oligomerization state of p53 in SaOS-2 cells by Blue-Native PAGE (BN-PAGE) and Western blot analysis was also assessed, after cell lysis with a mild detergent (CHAPS). […] In denaturing but non-reducing PAGE, the oligomers and aggregates were dissociated into monomers, and all mutants were expressed at similar levels (FIG. 2, panel c).
Since co-aggregation of proteins depends strictly on sequence similarity rather than hydrophobicity,^27 mutant p53 might also be able to induce co-aggregation and inactivation of p63 and p73. To investigate this hypothesis, mutant p53 and the transactivation domain (TA) of p63 or p73 (TAp63α/TAp73α) were co-expressed in SaOS-2 cells. […]
In the degradation stability test, protein synthesis was blocked by 60 μg/mL cycloheximide 24 hours after transfection, and cells were lysed 0, 3, 6, 12, 24 and 48 hours after the addition of cycloheximide. […] Cells were analyzed by immunofluorescence after 24 hours.

[4] = molecular target: p53β (p53-aggregating sequence ILTIITL) (Homo sapiens, UniProt P04637); test: In vitro peptide-binding assay (PepSpot membrane, biotinylated p53β peptide, streptavidin-HRP); conditions: immobilized peptide, p53β self-interaction = 100,00
Description: In order to identify aggregating peptides that match p53β, the human proteome for peptides that have high homology with the p53β peptide were screened. While p53β is unique to p53, in silico analysis identified 56 additional peptides (Table 2) that have no more than two mismatches with p53β. Subsequently, the ability of the selected peptides to interact with p53β using an in vitro peptide-binding assay was empirically determined. Therefore, the 56 selected peptides were spot-synthesized on a cellulose membrane, which was subsequently incubated with biotinylated p53β peptide (FIG. 17, panel b). After washing, the membrane was treated with streptavidine-HRP to detect p53β binding (FIG. 17, panel c). Consistently, the assay successfully identified control peptides including p53β itself, as well as the equivalent sequences from p63 and p73. […] The sequence identity between p53β and their interacting peptide, however, is 75%. Although the function of the proteins from which these 33 interacting peptides stem is often poorly characterized, some interesting cases can be identified. Along with the previously identified p63 and p73, which are inactivated by mutant p53 in cancer, segments were found belonging to Copine-2 (CPNE2), which is a negative regulator of growth factor signaling,^72 methionine synthase (METH), which has been associated to methionine dependence in tumors,^64 CGRF1, a negative regulator of cell proliferation,^67 and caspase-8 (CASP8), a key element for apoptosis, the inactivation of which is associated to chemoresistance and found in a variety of human cancers.^66
Peptides of selected sequences were spot synthesized on PVDF membrane (PepSpot, JPT). The membranes were blocked by 1% BSA in phosphate-buffered saline for 1 hour at room temperature, and then incubated with biotinylated peptide containing the p53-aggregating sequence for 1 hour. After rinsing with 0.1% TWEEN® 20 in 25 mM MES buffer pH 7.0, membranes were incubated in HRP-labeled Streptavidin (Thermo) and visualized with electrochemical luminescence (ECL) system.

Row | Compound | Binding intensity (normalized) [4] | further results
1 | CC(C)C[C@H](NC(=O)[C@H](Cc1ccccc1)NC(=O)c1cnccn1)B(O)O [Bortezomib] | – | p53 high molecular-weight species (native page) (WT p53 in U2OS cells [1]): smear was comparable
2 | COc1cccc2c1C(=O)c1c(O)c3c(c(O)c1C2=O)C[C@@](O)(C(=O)CO)C[C@@H]3O[C@H]1C[C@H](N)[C@H](O)[C@H](C)O1 [doxorubicin] | – | p53 expression level (Western blot) (WT p53 in U2OS cells [2]): increased expression levels of p53; p53 high molecular-weight species (native page) (WT p53 in U2OS cells [1]): high molecular-weight species of p53
3 | COC(=O)Nc1nc2ccc(C(=O)c3cccs3)cc2[nH]1 [nocodazole] | – | vimentin network and aggregates of mutant p53 and p63/p73 ([3]; SaOS-2 cells co-expressing aggregating p53 mutants and TAp63α/TAp73α): disrupted the vimentin network and resulted in diffused punctuate aggregates in the cytoplasm; cellular distribution of mutant p53 ([3]; SaOS-2 cells over-expressing mutant p53): shifted from a punctate to a diffuse cytoplasmic staining
4 | ALTFITL (listed as Homo sapiens) [peptide from BN3D2_HUMAN] | 6,47 | –
5 | ALVIITL (listed as Homo sapiens) [peptide from CCNI2_HUMAN] | 43,37 | –
6 | CLTIITG (listed as Homo sapiens) [peptide from TRI18_HUMAN] | 3,67 | –
7 | DLTIIDL (listed as Homo sapiens) [peptide from MX2_HUMAN] | 40,18 | –
8 | FLTIFTL (listed as Homo sapiens) [peptide from PRA10_HUMAN] | 26,40 | –
9 | GLTIPTL (listed as Homo sapiens) | 10,86 | –
10 | IEVIITL (listed as Homo sapiens) [peptide from CXL11_HUMAN] | 8,54 | –
11 | IHAIITL (listed as Homo sapiens) [peptide from LRC40_HUMAN] | 8,22 | –
12 | IKSIITL (listed as Homo sapiens) [peptide from CT132_HUMAN] | 4,39 | –
13 | IKTIINL (listed as Homo sapiens) [peptide from PTPC1_HUMAN] | 9,72 | –
14 | ILCDITL (listed as Homo sapiens) [peptide from KLH32_HUMAN] | 7,89 | –
15 | ILDIITS (listed as Homo sapiens) [peptide from ANXA6_HUMAN] | 78,87 | –
16 | ILGKITL (listed as Homo sapiens) [peptide from MP2K4_HUMAN] | 16,85 | –
17 | ILIIITL (listed as Homo sapiens) [peptide from P73_HUMAN] | 98,99 | –
18 | ILIIVTL (listed as Homo sapiens) [peptide from P63_HUMAN] | 92,04 | –
19 | ILKNITL (listed as Homo sapiens) [peptide from BPA1_HUMAN] | 12,10 | –
20 | ILKQITL (listed as Homo sapiens) | 19,84 | –

Row | Compound | Binding intensity (normalized) [4] | further results
21 | ILLIITD (listed as Homo sapiens) [peptide from CPNE2_HUMAN] | 111,13 | –
22 | ILQIISL (listed as Homo sapiens) [peptide from PK3C3_HUMAN] | 26,33 | –
23 | ILQIITE (listed as Homo sapiens) [peptide from DHX29_HUMAN] | 15,64 | –
24 | ILRQITL (listed as Homo sapiens) [peptide from CD2A1_HUMAN] | 14,74 | –
25 | ILSIDTL (listed as Homo sapiens) [peptide from SPEF2_HUMAN] | 79,63 | –
26 | ILTDVTL (listed as Homo sapiens) | 5,88 | –
27 | ILTEIHL (listed as Homo sapiens) [peptide from RFC5_HUMAN] | 12,86 | –
28 | ILTFKTL (listed as Homo sapiens) [peptide from DYH3_HUMAN] | 6,20 | –
29 | ILTICTK (listed as Homo sapiens) | 6,48 | –
30 | ILTIGTG (listed as Homo sapiens) | 49,22 | –
31 | ILTIITL (listed as Homo sapiens) | 100,00 | –
32 | ILTIKEL (listed as Homo sapiens) [peptide from ZN830_HUMAN] | 14,09 | –
33 | ILTILCL (listed as Homo sapiens) | 4,81 | –
34 | ILTILTE (listed as Homo sapiens) [peptide from CASP8_HUMAN] | 11,43 | –
35 | ILTISSL (listed as Homo sapiens) [peptide from KV122_HUMAN] | 23,80 | –
36 | ILTITTP (listed as Homo sapiens) [peptide from CBPC3_HUMAN] | 19,59 | –
37 | ILTIVSL (listed as Homo sapiens) [peptide from DHX33_HUMAN] | 10,20 | –
38 | ILTKISL (listed as Homo sapiens) [peptide from HEAT1_HUMAN] | 8,65 | –
39 | ILTKPTL (listed as Homo sapiens) [peptide from MYST3_HUMAN] | 16,14 | –
40 | ILTKSTL (listed as Homo sapiens) [peptide from CND2_HUMAN] | 17,86 | –

Row | Compound | Binding intensity (normalized) [4] | further results
41 | ILTKYTL (listed as Homo sapiens) [peptide from NOL11_HUMAN] | 33,34 | –
42 | ILTLIEL (listed as Homo sapiens) [peptide from SMG1_HUMAN] | 9,77 | –
43 | ILTNTTL (listed as Homo sapiens) [peptide from CC132_HUMAN] | 76,96 | –
44 | ILTSGTL (listed as Homo sapiens) [peptide from RTEL1_HUMAN] | 17,31 | –
45 | ILTSQTL (listed as Homo sapiens) | 2,39 | –
46 | ILVIITR (listed as Homo sapiens) [peptide from LONF2_HUMAN] | 6,81 | –
47 | IQTISTL (listed as Homo sapiens) [peptide from SCC4_HUMAN] | 7,06 | –
48 | ITTGITL (listed as Homo sapiens) [peptide from CGRF1_HUMAN] | 36,69 | –
49 | ITTVITL (listed as Homo sapiens) [peptide from CD041_HUMAN] | 5,27 | –
50 | IVTIITA (listed as Homo sapiens) | 17,21 | –
51 | IYTGITL (listed as Homo sapiens) | 32,12 | –
52 | KLTIITS (listed as Homo sapiens) [peptide from CM031_HUMAN] | 17,88 | –
53 | LLTIETL (listed as Homo sapiens) | 26,55 | –
54 | LLTIILL (listed as Homo sapiens) | 3,95 | –
55 | LLTIINL (listed as Homo sapiens) | 1,55 | –
56 | MLTEITL (listed as Homo sapiens) | 3,03 | –
57 | RRPILTIITLEDGS (listed as Homo sapiens) [reference compound] | 30,92 | –
58 | TLTISTL (listed as Homo sapiens) [peptide from KV117_HUMAN] | 10,18 | –
59 | VLTISTL (listed as Homo sapiens) | 6,72 | –
